Test: soluble on expression in E. coli; label from the status in PepcDB or PDB records

Sequence	soluble on expression in E. coli
MIETTLTGKTPDIGEENIKKLMTMFPEVVTEGKVDFEKLKQLLGEYVDDSNERYNFTWNGKGRALRLSQTPSLGTLRPCKEESKNWDTTQNLYIEGDNLEVLKLLQKSYYGKIKMIYIDPPYNTGKDFVYRDDFHDSLENYKRITGQVDGNGKAISTNTETSGRYHTDWLNMMYPRLRLARNLLSDDGVIFISIDDNEVDNLKKICNEIFGEDNFIANCVRKRRDSQANLSQNISPIHEYVLIYAKRFGNILNKVTPSLDMGSYKNPDNDPRGPYTTMPCTNVGGAVYSIVTPTGKTITDEWRFKKETFEKLLLDNRIVFPRNGEGKPRYKIFLSEKMAEGVLANTWLDKIASNQEGTREIKELFGGLLFNNPKPTGLLKFLLELGSSKDSIILDFFSGSATTAHAVMQLNAEDGGNRRFIMVQLPEPTDENSEAYKAGYMNISEIGKERIRRAGEKIKEEYKDKGNIENLDIGFKVFKLDTSNIRKWQPDYDNLEQSLMDYVDNFVEGRTELDVVYEIMLKYGLDLTYPVDEFTIAGKKVYSIGYGMLMICLDNEITTEVAKGILTKIKELSPESSRVVFKDNGFKTDSNKTNIKEILKSGGIEEFITI	not soluble
MKILHTSDWHIGKTLYGHKRYDEFEAFFSWLVETIEQEQVDVLLIAGDIFDTSTPGNRSQQLYYRFLHRVAASACRHVVIIAGNHDSPSFLSAPRELLRALDVHVTGSLSGNPADEILVLHDPKGDAELIVCAVPHLRDRDIRTAEAGESMEDKSRKLVEGIRDHYAEVINLARLQRTALSSSIPIIAMGHLFVAGGQTVEGDGVRELYVGSLAHVPAGIFPPDIDYLALGHLHVPQRVNGSSVMRYSGSPLPIGFGEADQEKSVCLIEFNRQ	not soluble
MGSDKIHHHHHHMSDVNASLVDGKKILVTGGAGFIGCAISERLAARASRYVVMDNLHPQIHASAVRPGALHEKAELVVADVTDAGAWDALLSDFQPEIIIHLAAETGTGQSLTEASRHALVNVVGTTRLTDALVKHGIVVEHILLTSSRAVYGEGAWQKDDGTIVYPGQRGRAQLEAAQWDFPGMTMLPSRADRTEPRPTSVYGATKLAQEHVLRAWSLATKTPLSILRLQNVYGPGQSLTNSYTGIVALFSRLAREKKVIPLYEDGNVTRDFVSIDDVADAIVATLVRTPEALSLFDIGSGQATSILDMARIIAAHYGAPEPQINGAFRDGDVRHAACDLSESLANLGWKPQWSLKRGIGELQTWIAQELDRKN	not soluble
MSPSPLISHRAASADLAGMVRQARQRILLQGNVPGFDVARQIELLHGLAESELGRFLLLYRGLNAEWTHRLVTHQPGSGALAPLERVFYERLPAVLATRERHGHFRRALQRHLRPGCVVASVPCGWMSELLALDYSACPGVQLVGIDYDPEALDGATRLAAGHALAGQITLHRQDAWKLDTREGYDLLTSNGLNIYEPDDARVTELYRRFWQALKPGGALVTSFLTPPPALSPDSPWDMQAIDPHDLQLQQLVFTRLIQPRWNALRTHAQTRAQLEEAGFTDLRFEDDRARLFPTVIARKPA	soluble
MAHHHHHHMCAALSPAHFQLRVKILSEAAKHVPETGFTNAALAASLKSIGVEDITDRTLSQIFNRGFPIALVEHIVKSTNLHVQRELESVFSKDAIIKSIDSNVDAFVQNRLLLPTEKNVVEKAILSKLELLIPLAEHWPSAVALEYLPANLPYTVMNLAEFVDTTVYYMERATTLGELLDPARRILRSKAMASRIRSGEVDSNGASPTSEFLKSFLKGISLSSGPYAGPSALNLGWYCKRAQVAIVYGAVTTSLLGDVSQNAADTRSLTKAAVETVF	not soluble
MGSDKIHHHHHHMQNFVLTVSCKSTRGVVAALSGYLAEQGCNIADSSQFDDLDTGKFFMRTSFISEERVGLAALEEGLKPIASKFEMETALHEQSERMKVLLMVSRFGHCLNDLLYRWKIGALPIDIVGVVSNHFDYQKVVVNHDIPFHHIKVTKENKPKAEAQLMDVVEQTGAELIVLARYMQVLSDALCKKMSGKIINIHHSFLPSFKGANPYKQAYERGVKLIGATAHYVTADLDEGPIIEQDIARITHAQSAEDYVSIGRDVESQVLARAVHAHIHHRCFINGNRVVVFPPSPGSYASERMG	not soluble
MGSDKIHHHHHHMIISWNTTNKCNMHCEHCYRDSGKGAEGELSTTEGKKLIDEIAKAGFKIMIFSGGEPLLRDDIYELIGYASKIGLRCVIGSNGTLITLEAAQKLKKAGVMRAGISLDSLKAKKHDSFRNYSGAWENTIIGIENLKKAGISFQINTTVMKWNKDEVKDITDFGANLGASAHHVFFLVPTGRGAELQEQILSKNDYENLIKEIMLKQAHANIEIKPTCAPQFVRIAEQNNIKTRFKKGCLAGIKYCIISPTGNVQPCAYLNFSAGNVKQKSFGEIWRESPILKKLRTMEYGEKCGTCKYKNKCGGCRARAAFYNNGDIMASDTWCIYNEYEENKING	not soluble
MGHHHHHHSHMYKRCKRGQDKCMMRPLSNPLTEAYNVQNLYQCLNCDDYHLCNGSLNCDPLVDREGIVCTVTGKYIQCNVRESPMCGAACLDVDIHPEDNTDCILRALFGDIVDIINKLDDIAEIKDKILAGDSLNEHIKKKIECTFPMCANIINCNSQGYSILCSMFVHIIMSIYANKTIYGHMLFKCTRNKKYDTIAKKIREKWMYLE	not soluble
ATEPFMKGRVKLLPDILPGKNKDHEFEALVSTIQDMSLKMMELMVERPPRELILSMRRNKNPMYQINFASANISTSIAVKQELLEISKMKDRGYRLLYLLHKELQVMELKASIQMKTREEMDKQQKEYFLQQQIKTIQEELGGNINDIEVQELRTKAATMKWSSEVAETFEKELRKLERLHPQSPDYSVQMQYVQTIISLPWGVFSKDNFNLKRAQSVLDRDHFGLEKVKERIIEHLAVLKMKGDMKSPIICLYGPPGVGKTSLGKSIAESLGRKYVRISLGGLHDEAEIRGHRRTYIGAMCGRIIQSLQRAGTSNPVFVLDEIDKIDSDYKGDPSSALLEVLDPEQNNAFHDNYLDIDFDLSHVLFIATANSLSSISRPLLDRMELIDV	not soluble
MGSDKIHHHHHHMASHNTTHQMKTLCSSCSLRELCLPVGLLPNELSQLDAVIRQSRRLKKGEYLFCVGEAFTSLFAIRSGFFKTTVASQDGRDQVTGFFMSGELIGMDGICSHVHSCDAVALEDSEVCELPFTHIEELGQNIPSLRTHFFRMMSREIVRDQGVMLLLGNMRAEERIAAFLLNLSQRLYSRGFAANDFILRMSREEIGSYLGLKLETVSRTLSKFHQEGLISVEHKHIKILNLQVLKKMVSGCSHAI	not soluble
MGSDKIHHHHHHMSPRPKQLSLELGSPPPSTFDNFVVASNREAVQRLHDLPSAVAQERAIDRLFYLWGENGCGRTHLLHAVCEATPQTGINCRYLSPHHPLSDFLFDPSCQLYTVDDVELLDEARQIAVFSLYNEVRAHVRTALVVAGGMAPRAMPVREDLRTRLGWGLVYQVQPLSDEDKMSAVLQAARERGLQLSPEITHWLVTRHYRDMPSLMALLDALDTYSLERKRPVTLPLLREMFAEFRE	not soluble
SVEVITHPGVNSNYLSKNLLRSIFGMRLRTWQDGLPVRVFVLPDDAPLHSTFTKQKLNIFPYQLRSAWDRMVYSGTGQAPFVVHTEEEMRARIASTPGAIGYLSGSMINDSVQVVHID	not soluble
MELAKFIGLTTFQDILEDCFALLVYERPEESNVGYFLEETQREVVADTVNAAILSTKPKGKNQSHSHLETLLRQLTACCLELRSLNDGQGEAFSLNRLLRTNNWKRTKKTT	soluble
MNRNRLPALTPGLAWSRPMNGAVDHKGYEQPTYDLEFAETATEIRRYGPYLVAEVTMAGDRSTAITRGFRVLARYIFGGNAESRRIEMTVPVSQLPAGEDLWTVRFTMPAVRSASLLPAPKDSRIRFVTVPPSRQAVRRFSGWPTDHALRRQAEGLAHWIAERGLPKREGPYFYFYDSPMTLPWQRRNEVAFGLGEGAAALEHHHHHH	not soluble
MKTVPPVHRIALLFNGSKIYDRGIISGIGNYLSSTRVSWDLFLEEDFLCRLKGIERWQGDGIIADFDDPLIGEALAGIRLPVVAVGGSYQDERAYPKGIPYVATDNHALIKAAYEHLIEAGLTRFACFSLPEAQANRWAQEREKAFRHLLQRDGLHAEVYRGLGTSAPLWDSAVEQQITWLQSLPKPIGIIAVTDARARQLLQACLTAGIAVPEQVALIGIDNDPLTRTLTRVPLSSVIQGTETMGRTAARLLHQLLHGMPSSGTHILIPPDAVNVQASSLHQPLGDPYVMQALLFIRQYACQGIKTAQVAAYVGVSRSALESHFRRVRGCSVHDEILRFKLAAAAHGLENTDSAIADIARDCGFRSAQYLHTVFRREFGCTPREYLQGANAALQ	not soluble

Source: the DeepSol protein solubility set
